In this assay the target is Flag-tagged NS5B (hepatitis C virus). Put plainly: cell-based or functional assay.

With “protein kinase C-related kinase 2 (PRK2) (from UniProt Q16513 1-984) (enzyme)”, the level of p-NS5B (32P-orthophosphate metabolic labeling, immunoprecipitation, autoradiography) after PRK2 silencing with siPRK2-1 turned out to be 55%.
